Like-named read-outs stand apart in the source and are kept apart here.

Assay [1] has as its target T1, human CD47 on CCRF-CEM cells (human, UniProt Q08722 19-323).
T1 construct: whole, on cells
Briefly: flow cytometry competition on CCRF-CEM cells; blocked ligand hSIRPα-mFC, detected with PE goat anti-mouse IgG Fc. On the technique in general: Flow cytometry measures light scatter and fluorescence of single cells or particles in a stream.

Assay [2] addresses T2, monkey CD47 on CHO-cynoCD47 cells (monkey).
T2 construct: whole, on cells; Cell line named CHO-cynoCD47; the text calls the species 'monkey'
Kind of assay: flow cytometry on CHO-cynoCD47 cells, MFI curve.
Procedure: Then, the cells were washed at least twice, a PE Goat anti human IgG Fc (1:500× dilution) fluorescent secondary antibody was prepared with a FCM buffer (1×PBS+3% BSA), added to a corresponding 96-well plate according to 100 μL/well, and incubated in a refrigerator at 4° C. for 30 min. The 96-well plate was taken out, and centrifuged at 250 g for 5 min, after a supernatant was carefully removed, the FCM buffer was added at 200 μL/well, and it was centrifuged again at 250 g for 5 min, the supernatant was carefully removed. The cells were washed at least twice and resuspended with 1×PBS at 100 μL/well, and analyzed by the flow cytometry, and a concentration-dependent curve was fitted with GraphPad according to MFI thereof.

Assay [3] addresses T1, human CD47 on CCRF-CEM cells. Briefly: flow cytometry on CCRF-CEM cells, MFI curve.
Procedure: The specific steps were as follows.
A cell line CCRF-CEM (Cell Bank of Chinese Academy of Sciences, Shanghai) expressing human CD47 was used, which belongs to human acute lymphoblastic leukemia T lymphocytes. […] Then, the cells were washed at least twice, a PE Goat anti human IgG Fc (1:500× dilution) fluorescent secondary antibody was prepared with a FCM buffer (1×PBS+3% BSA), added to a corresponding 96-well plate according to 100 μL/well, and incubated in a refrigerator at 4° C. for 30 min. The 96-well plate was taken out, and centrifuged at 250 g for 5 min, after a supernatant was carefully removed, the FCM buffer was added at 200 μL/well, and it was centrifuged again at 250 g for 5 min, the supernatant was carefully removed. The cells were washed at least twice and resuspended using 100 μL/well 1×PBS, and analyzed by the flow cytometry, and a concentration-dependent curve was fitted with GraphPad according to the mean fluorescence intensity (MFI) thereof.
The target in assay [4] is T3, hCD47-ECD-HIS recombinant protein (human, UniProt Q08722 19-139, limits assumed).
T3 construct: extracellular domain; also called hCD47 antigen; CD47 antigen
Briefly: BLI (ForteBio), antibody on AHC sensor, 100 nM CD47 antigen, 1:1 model.
Procedure: An equilibrium dissociation constant (KD) of the antibody of the present application binding to human CD47 (hCD47) was determined by a biofilm interferometry (ForteBio). […] Kinetic analysis was performed with a 1:1 binding model.

Assay [5] deals with T1, human CD47 on CCRF-CEM cells. Kind of assay: flow cytometry competition on CCRF-CEM cells; blocked ligand hSIRPα-mFC, detected with PE goat anti-mouse IgG Fc. This is another data set of the same source.

B1: 7A11H32 (antibody, V domains shown)
VH: QVQLVQSGAEVKKPGSSVKVSCKASGSSFTSNWMNWVRQAPGQGLEWIGMIHPSDSETRLNQKFKDRVTITADKSTSTAYMELSSLRSEDTAVYYCARGTTVVDAFAYWGQGTTVTVSS
VL: DIQMTQSPSSLSASVGDRVTMTCKSSQSLLNSRTRKNYLAWYQQKPGKAPKLLIYWASTRESGVPSRFSGSGSGTDFTLTISSLQPEDFATYYCKQSYNLRTFGGGTKLEIK
notes: also called CD47 antibody
One may read the EC50 as the concentration giving half of the maximal effect. Regarding B1, in assay [1], the “IC50 (read off the curve)” value is around 2 nM. The EC50 in assay [2] is 17.1 nM; in assay [3] it was 0.717 nM.

B2: 7A11H35 (antibody, V domains shown)
VH: QVQLVQSGAEVKKPGSSVKVSCKASGSSFTSNWMNWVRQAPGQGLEWIGMIHPSDSETRLNQKFKDRVTITADKSTSTAYMELSSLRSEDTAVYYCARGTTVVDAFAYWGQGTTVTVSS
VL: EIVMTQSPPTLSLSPGERVTMSCKSSQSLLNSRTRKNYLAWYQQKPGQAPRLLIYWASTRESGIPARFSGSGSGTDFTLTISSLQPEDFAVYYCKQSYNLRTFGGGTKLEIK
notes: also called CD47 antibody
The term Kd denotes the constant that tells how readily two partners part at equilibrium. As for B2, the values for the EC50 in assay [2] and in assay [3] were 4.38 nM and 0.862 nM, respectively. In addition, the Kd in assay [4] is 0.881 nM.

B3: 7A11H14 (antibody, V domains shown)
VH: QVQLVQPGAEVKKPGASVKLSCKASGSSFTSNWMNWVRQAPGQGLEWIGMIHPSDSETRLNQKFKDRATLTVDKSTSTAYMELSSPRSEDTAVYYCARGTTVVDAFAYWGQGTTVTVSS
VL: DIVMTQSPDSLAVSLGERATMNCKSSQSLLNTRTRKNYLAWYQQKPGQPPKLLIYWASTRESGVPDRFSGSGSGTDFTLTISSLQAEDVAVYYCKQSYNLRTFGGGTKLEIK
notes: also called CD47 antibody
Regarding B3, the EC50 came to 4.96 nM in assay [2] and 0.933 nM in assay [3]. Further, the Kd in assay [4] amounted to 0.562 nM.

B4: 7A11H11 (antibody, V domains shown)
VH: QVQLVQPGAEVKKPGASVKLSCKASGSSFTSNWMNWVRQAPGQGLEWIGMIHPSDSETRLNQKFKDRATLTVDKSTSTAYMELSSPRSEDTAVYYCARGTTVVDAFAYWGQGTTVTVSS
VL: DIVMTQSPDSLAVSLGERATMNCKSSQSLLNSRTRKNYLAWYQQKPGQPPKLLIYWASTRESGVPDRFSGSGSGTDFTLTISSLQAEDVAVYYCKQSYNLRTFGGGTKLEIK
notes: also called CD47 antibody
B4: the “IC50 (read off the curve)” value in assay [1] was around 2 nM. Moreover, the EC50 is 8.93 nM in assay [2] and 0.822 nM in assay [3]. Also, the Kd in assay [4] worked out at 0.59 nM.

B5: 7A11H22 (antibody, V domains shown)
VH: QVQLVQSGAEVKKPGASVKVSCKASGSSFTSNWMNWVRQAPGQGLEWIGMIHPSDSETRLNQKFKDRATLTVDKSTSTAYMELSSLRSEDTAVYYCARGTTVVDAFAYWGQGTTVTVSS
VL: DIQMTQSPSSLSASVGDRVTMTCKSSQSLLNSRTRKNYLAWYQQKPGKAPKLLIYWASTRESGVPSRFSGSGSGTDFTLTISSLQPEDFATYYCKQSYNLRTFGGGTKLEIK
notes: also called CD47 antibody
For B5, the “IC50 (read off the curve)” value in assay [1] is around 2 nM. For the same molecule, the figures for the EC50 in assay [2] and in assay [3] were 8.55 nM and 0.82 nM, respectively. Besides, the Kd in assay [4] was found to be 0.74 nM.

B6: 7A11H15 (antibody, V domains shown)
VH: QVQLVQPGAEVKKPGASVKLSCKASGSSFTSNWMNWVRQAPGQGLEWIGMIHPSDSETRLNQKFKDRATLTVDKSTSTAYMELSSPRSEDTAVYYCARGTTVVDAFAYWGQGTTVTVSS
VL: EIVMTQSPPTLSLSPGERVTMSCKSSQSLLNSRTRKNYLAWYQQKPGQAPRLLIYWASTRESGIPARFSGSGSGTDFTLTISSLQPEDFAVYYCKQSYNLRTFGGGTKLEIK
notes: also called CD47 antibody
As a reminder, the koff is the rate constant with which the complex falls apart. A word on the kon: it is the second-order rate constant of association. With B6, the EC50 in assay [2] amounted to 7.27 nM. In assay [4], the Kd came to 0.212 nM, the koff is 0.000313 s⁻¹ and the kon came to 1.48e+06 M⁻¹ s⁻¹. In assay [5], the “IC50 (read off the curve)” value is around 2 nM. The molecule further yielded an EC50 in assay [3] of 0.723 nM.

B7: 7A11H42 (antibody, V domains shown)
VH: QVQLVQSGAEVKKPGSSVKVSCKASGSSFTSNWMNWVRQAPGQGLEWIGMIHPSDSETRLNQKFQGRVTITADKSTSTAYMELSSLRSEDTAVYYCARGTTVVDAFAYWGQGTTVTVSS
VL: DIQMTQSPSSLSASVGDRVTMTCKSSQSLLNSRTRKNYLAWYQQKPGKAPKLLIYWASTRESGVPSRFSGSGSGTDFTLTISSLQPEDFATYYCKQSYNLRTFGGGTKLEIK
notes: also called CD47 antibody
For B7, the “IC50 (read off the curve)” value in assay [1] is around 2 nM. In addition, the figures for the EC50 in assay [2] and in assay [3] were 5 nM and 0.727 nM, respectively. Besides, the Kd in assay [4] came out at 0.309 nM.

B8: 7A11H33 (antibody, V domains shown)
VH: QVQLVQSGAEVKKPGSSVKVSCKASGSSFTSNWMNWVRQAPGQGLEWIGMIHPSDSETRLNQKFKDRVTITADKSTSTAYMELSSLRSEDTAVYYCARGTTVVDAFAYWGQGTTVTVSS
VL: DIQMTQSPSSLSASVGDRVTMTCKSSQSLLNTRTRKNYLAWYQQKPGKAPKLLIYWASTRESGVPSRFSGSGSGTDFTLTISSLQPEDFATYYCKQSYNLRTFGGGTKLEIK
notes: also called CD47 antibody
Regarding B8, the 50% effective concentration (EC50) came to 4.85 nM in assay [2] and 0.76 nM in assay [3]. For the same molecule, the Kd in assay [4] is 0.36 nM.

B9: 7A11H55 (antibody, V domains shown)
VH: QVQLVQSGAEVKKPGSSVKVSCKASGGTFTSNWMNWVRQAPGQGLEWIGMIHPSDSETRLNQKFQGRVTITADKSTSTAYMELSSLRSEDTAVYYCARGTTVVDAFAYWGQGTTVTVSS
VL: EIVMTQSPPTLSLSPGERVTMSCKSSQSLLNSRTRKNYLAWYQQKPGQAPRLLIYWASTRESGIPARFSGSGSGTDFTLTISSLQPEDFAVYYCKQSYNLRTFGGGTKLEIK
notes: also called CD47 antibody
As for B9, the EC50 is 4.62 nM in assay [2] and 1.21 nM in assay [3].

B10: 7A11H34 (antibody, V domains shown)
VH: QVQLVQSGAEVKKPGSSVKVSCKASGSSFTSNWMNWVRQAPGQGLEWIGMIHPSDSETRLNQKFKDRVTITADKSTSTAYMELSSLRSEDTAVYYCARGTTVVDAFAYWGQGTTVTVSS
VL: DIVMTQSPDSLAVSLGERATMNCKSSQSLLNTRTRKNYLAWYQQKPGQPPKLLIYWASTRESGVPDRFSGSGSGTDFTLTISSLQAEDVAVYYCKQSYNLRTFGGGTKLEIK
notes: also called CD47 antibody
With B10, the EC50 in assay [2] worked out at 8.61 nM; in assay [3] it was 1.2 nM.

B11: 7A11H12 (antibody, V domains shown)
VH: QVQLVQPGAEVKKPGASVKLSCKASGSSFTSNWMNWVRQAPGQGLEWIGMIHPSDSETRLNQKFKDRATLTVDKSTSTAYMELSSPRSEDTAVYYCARGTTVVDAFAYWGQGTTVTVSS
VL: DIQMTQSPSSLSASVGDRVTMTCKSSQSLLNSRTRKNYLAWYQQKPGKAPKLLIYWASTRESGVPSRFSGSGSGTDFTLTISSLQPEDFATYYCKQSYNLRTFGGGTKLEIK
notes: also called CD47 antibody
Take B11: in assay [1], the “IC50 (read off the curve)” value is around 0.9 nM. Also, the EC50 amounted to 7.35 nM in assay [2] and 0.716 nM in assay [3]. In addition, in assay [4], the dissociation constant (Kd) came to 0.459 nM.

B12: 7A11H52 (antibody, V domains shown)
VH: QVQLVQSGAEVKKPGSSVKVSCKASGGTFTSNWMNWVRQAPGQGLEWIGMIHPSDSETRLNQKFQGRVTITADKSTSTAYMELSSLRSEDTAVYYCARGTTVVDAFAYWGQGTTVTVSS
VL: DIQMTQSPSSLSASVGDRVTMTCKSSQSLLNSRTRKNYLAWYQQKPGKAPKLLIYWASTRESGVPSRFSGSGSGTDFTLTISSLQPEDFATYYCKQSYNLRTFGGGTKLEIK
notes: also called CD47 antibody
With B12, the half-maximal effective concentration (EC50) was found to be 4.51 nM in assay [2] and 0.915 nM in assay [3].

B13: Hu5F9-G4 (antibody, V domains shown)
VH: QVQLVQSGAEVKKPGASVKVSCKASGYTFTNYNMHWVRQAPGQRLEWMGTIYPGNDDTSYNQKFKDRVTITADTSASTAYMELSSLRSEDTAVYYCARGGYRAMDYWGQGTLVTVSS
VL: DIVMTQSPLSLPVTPGEPASISCRSSQSIVYSNGNTYLGWYLQKPGQSPQLLIYKVSNRFSGVPDRFSGSGSGTDFTLKISRVEAEDVGVYYCFQGSHVPYTFGQGTKLEIKR
As for B13, a half-maximal effect in assay [2] (EC50) was put at 5.12 nM.

Source of the values: US20230312709A1 (GUANGDONG FEIPENG PHARMACEUTICAL, published 2023).
